From US20210380699A1 (published 2021)
Values belong to the binder of their own block, whether it stands above or below them.

Tests used:
[1] = target: T1, Human PD-L1 expressed on cells (human, UniProt Q9NZQ7 19-290); assay: cell-based or functional assay
[2] = target: T2, Mouse PD-L1 ECD His (mouse, UniProt Q9EP73 19-239); assay: SPR 25C and 37C
T2 construct: also called mouse PD-L1 (his-tagged)

[3] = target: T1, Human PD-L1 expressed on cells; assay: flow cytometry on CHO hPD-L1 cells, competitor biotin-PD-1-Fc, n = 1
Method: (§1) 150 μL FACS buffer is added and cells washed as described above. […] Cells are incubated at 4° C. for 60 minutes. Cells are washed twice with 150 μL FACS buffer, centrifuging at 300 g for 3 minutes after each wash step and aspirating supernatant. Cells are fixed, washed and resuspended for analysis as above. APC signal intensity (geometric mean) is measured by flow cytometry using a Beckman Coulter CYTOFLEX instrument. Data is plotted as percentage of receptor binding.

[4] = target: T3, Human PD-L1 His (human PD-L1 ECD with C-terminal His tag) (human, UniProt Q9NZQ7 19-238); assay: SPR 25C, antibody captured, PD-L1 analyte
T3 construct: Biotinylated in ELISA and AlphaScreen assays; also called hPD-L1-his; biotinylated PD-L1 his
T3 sequence (Q9NZQ7 19-238 limits assumed): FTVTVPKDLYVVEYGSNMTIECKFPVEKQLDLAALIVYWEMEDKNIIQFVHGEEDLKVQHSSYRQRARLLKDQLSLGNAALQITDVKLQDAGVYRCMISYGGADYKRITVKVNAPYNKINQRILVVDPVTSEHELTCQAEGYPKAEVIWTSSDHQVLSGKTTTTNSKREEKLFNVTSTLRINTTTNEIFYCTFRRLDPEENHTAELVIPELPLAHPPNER
Method: (§2) Label-free surface plasmon resonance (SPR) analysis was carried out on the ProteOn XPR36 (BioRad) array SPR machine. An anti-human IgG capture surface was created on a GLC biosensor chip using a combination of anti-human Fc antibodies (Jackson Labs 09-005-008,109-006-008 and 309-006-008) by amine coupling. […] The data was analysed using the 1:1 model inherent to the ProteOn XPR36 analysis software.

[5] = target: T4, Cyno PD-L1 FLAG (cynomolgus PD-L1 ECD with FLAG tag) (cynomolgus monkey); assay: SPR 25C, antibody captured, PD-L1 analyte
T4 construct: also called cynomolgus monkey PD-L1-FLAG
T4 sequence (chain, as listed by the source limits assumed): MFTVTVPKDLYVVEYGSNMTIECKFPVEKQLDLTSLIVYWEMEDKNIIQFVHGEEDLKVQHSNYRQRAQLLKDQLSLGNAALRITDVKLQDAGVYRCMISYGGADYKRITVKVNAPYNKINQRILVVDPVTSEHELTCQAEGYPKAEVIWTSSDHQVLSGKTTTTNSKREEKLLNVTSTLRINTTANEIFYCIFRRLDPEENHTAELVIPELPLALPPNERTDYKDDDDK
Method: as §2

[6] = target: T1, Human PD-L1 expressed on cells; assay: flow cytometry on CHO hPD-L1 cells, competitor biotin-CD80-Fc, n = 1
Method: as §1
(§3) All other steps are performed as per plate 2.

[7] = target: T1, Human PD-L1 expressed on cells; assay: flow cytometry on CHO hPD-L1 cells, competitor biotin-PD-1-Fc, n = 2
Method: as §1

[8] = target: T1, Human PD-L1 expressed on cells; assay: cell-based or functional assay; remark: listed apart in the source
[9] = target: T3, Human PD-L1 His (human PD-L1 ECD with …); assay: ELISA, biotin-PD-L1 to plate-bound CD80, antibody titrated
Method: (§4) Excess protein was removed by washing with PBS-Tween (0.1% v/v) and the wells were blocked with 1% w/v bovine serum albumin (BSA, Sigma) in PBS for 1 hour at room temperature, after which plates were washed with PBS-Tween as above. 60 μL of a titration (three-fold serial dilution) of antibody was added to a 96-well, non-binding plate diluted in ELISA assay buffer (PBS +0.1% BSA). […] The plate was incubated for 30 minutes before transferring 50 μL to the coated plates. The coated plates were incubated for 1 hour at room temperature. Excess protein was removed by washing with PBS-Tween (0.1% v/v). PD-L1 binding was detected using streptavidin labelled europium (Perkin Elmer) diluted 1/1000 in DELFIA assay buffer (Perkin Elmer). The plates were washed with TBS (Tris buffered saline)-Tween (0.1% v/v) and 50 μL/well of DELFIA Enhancement solution (Perkin Elmer) was added to the plate. Time-resolved fluorescence was measured at 615 nm on an Envision plate reader (PerkinElmer). Percentage specific binding was calculated as defined in Equation 3. IC50 values were determined using GraphPad Prism software by curve fitting using a four-parameter logistic equation (Equation 4). Values for KM121 antibodies are a mean of three independent experiments. Values for KM122 are from a single experiment.

[10] = target: T1, Human PD-L1 expressed on cells; assay: flow cytometry on CHO hPD-L1 cells, competitor biotin-CD80-Fc, n = 2
Method: as §1, §3

[11] = target: T3, Human PD-L1 His (human PD-L1 ECD with …); assay: ELISA, biotin-PD-L1 to plate-bound PD-1, antibody titrated
Method: as §4

[12] = target: T3, Human PD-L1 His (human PD-L1 ECD with …); assay: SPR 37C, antibody captured, PD-L1 analyte
[13] = target: T4, Cyno PD-L1 FLAG (cynomolgus PD-L1 ECD …); assay: SPR 37C, antibody captured, PD-L1 analyte
[14] = target: T1, Human PD-L1 expressed on cells; assay: cell-based or functional assay; remark: listed apart in the source
[15] = target: T3, Human PD-L1 His (human PD-L1 ECD with …); assay: ELISA, biotin-PD-L1 to plate-bound CD80, antibody titrated; remark: listed apart in the source
Method: (§5) Excess protein was removed by washing with PBS-Tween (0.1% v/v) and the wells were blocked with 1% w/v bovine serum albumin (BSA, Sigma) in PBS for 1 hour at room temperature, after which plates were washed as described previously. 60 μL of a titration (three-fold dilutions from 100 nM) of antibody was added to a 96-well, non-binding plate diluted in ELISA assay buffer (PBS+0.1% BSA). […] The plate was incubated for 30 min before transferring 50 μL to the coated plates.
(§6) The coated plates were incubated for 1 hour at room temperature. Excess protein was removed by washing with PBS-Tween (0.1% v/v). PD-L1 binding was detected using streptavidin labelled Europium (Perkin Elmer) diluted 1/1000 in DELFIA assay buffer (Perkin Elmer). The plates were washed with TBS (Tris buffered saline)-Tween (0.1% v/v) and 50 μL/well of DELFIA Enhancement solution (Perkin Elmer) was added to the plate. The time-resolved fluorescence was measured at 615 nm on an Envision plate reader (PerkinElmer). Percentage specific binding was calculated as defined in Equation 3.

[16] = target: T3, Human PD-L1 His (human PD-L1 ECD with …); assay: SPR 25C, antibody captured, PD-L1 analyte; remark: listed apart in the source
Method: Label-free surface plasmon resonance (SPR) analysis was carried out on the ProteOn XPR36 (BioRad) array SPR machine. An anti-human IgG capture surface was created on a GLC biosensor chip using amine coupling of an anti-human IgG from GE Healthcare. […] The assay was carried out at 25° C. using HBS-EP (Teknova H8022). Buffer alone was used to reference the binding sensorgrams. The data was analysed using the 1:1 model inherent to the ProteOn XPR36 analysis software.

[17] = target: T3, Human PD-L1 His (human PD-L1 ECD with …); assay: ELISA, biotin-PD-L1 to plate-bound PD-1, antibody titrated; remark: listed apart in the source
Method: as §5, §6

[18] = target: T1, Human PD-L1 expressed on cells; assay: flow cytometry on CHO hPD-L1 cells, competitor biotin-PD-1-Fc
Method: Plates were centrifuged at 300×g for 3 minutes to supernatant aspirated. […] Cells were washed with 150 μL of PBS and centrifuged at 300 g for 3 minutes. Supernatant was aspirated and 150 μL PBS added. This wash step was repeated.

[19] = target: T5, PD-L2-Fc (R&D Systems) (UniProt Q9BQ51 20-219, limits assumed); assay: DELFIA plate assay, biotinylated antibody on plate-bound PD-L2-Fc
T5 construct: not shown: Fc of the bought protein
T5 sequence (looked up): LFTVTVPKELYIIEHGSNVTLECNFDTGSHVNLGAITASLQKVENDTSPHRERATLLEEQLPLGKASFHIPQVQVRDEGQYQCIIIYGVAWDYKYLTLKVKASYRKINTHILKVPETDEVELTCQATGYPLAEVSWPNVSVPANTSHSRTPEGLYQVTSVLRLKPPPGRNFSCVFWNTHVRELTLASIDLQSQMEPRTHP
Method: Excess protein was removed by washing with PBS-Tween (0.1% v/v) and the wells were blocked with 250 μL/well Pierce Protein Free Blocking Buffer (Thermo, 37572) for 1 hour, after which plates were washed as described previously. […] 100 μL each antibody dilution was added to the plates in duplicate and incubated for 1 hour at room temperature, before washing as stated above. Antibody binding was detected using streptavidin labelled Europium (Perkin Elmer) diluted 1/1000 in DELFIA Assay buffer (Perkin Elmer). Plates were washed with TBS (Tris buffered saline)-Tween (0.1% v/v) and 50 μL/well of DELFIA Enhancement solution (Perkin Elmer) was added to the plate. Time-resolved fluorescence was measured at 615 nm on an Envision plate reader (PerkinElmer).

[20] = target: T3, Human PD-L1 His (human PD-L1 ECD with …); assay: ELISA, biotin-PD-L1 to plate-bound PD-1, antibody titrated; remark: listed apart in the source
Method: Excess protein was removed by washing with PBS-Tween (0.1% v/v) and the wells were blocked with 1% w/v bovine serum albumin (BSA, Sigma) in PBS for 1 hour at room temperature, after which plates were washed as described previously. […] The plate was incubated for 30 minutes before transferring 50 μL to the coated plates. The coated plates were incubated for 1 hour at room temperature. Excess protein was removed by washing with PBS-Tween (0.1% v/v). PD-L1 binding was detected using streptavidin labelled Europium (Perkin Elmer) diluted 1/1000 in DELFIA assay buffer (Perkin Elmer). Plates were washed with TBS (Tris buffered saline)-Tween (0.1% v/v) and 50 μL/well of DELFIA Enhancement solution (Perkin Elmer) was added to the plate. Time-resolved fluorescence was measured at 615 nm on an Envision plate reader (PerkinElmer).

[21] = target: T3, Human PD-L1 His (human PD-L1 ECD with …); assay: SPR 37C, antibody captured, PD-L1 analyte; remark: listed apart in the source
Method: as §2
(§7) Label-free surface plasmon resonance (SPR) analysis was performed as per Example 4, except the assay was performed at 37° C.

[22] = target: T4, Cyno PD-L1 FLAG (cynomolgus PD-L1 ECD …); assay: SPR 37C, antibody captured, PD-L1 analyte; remark: listed apart in the source
Method: as §2, §7

T1 sequence (Q9NZQ7 19-290 limits assumed): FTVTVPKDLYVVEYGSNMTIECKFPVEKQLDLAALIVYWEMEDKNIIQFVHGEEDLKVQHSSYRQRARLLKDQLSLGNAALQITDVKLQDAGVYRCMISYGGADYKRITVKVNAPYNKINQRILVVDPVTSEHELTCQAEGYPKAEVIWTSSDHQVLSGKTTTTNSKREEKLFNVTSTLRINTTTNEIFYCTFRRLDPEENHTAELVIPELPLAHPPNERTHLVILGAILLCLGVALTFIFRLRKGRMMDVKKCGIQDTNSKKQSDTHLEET
T2 sequence (Q9EP73 other isoform, or with tags, fused parts or gaps): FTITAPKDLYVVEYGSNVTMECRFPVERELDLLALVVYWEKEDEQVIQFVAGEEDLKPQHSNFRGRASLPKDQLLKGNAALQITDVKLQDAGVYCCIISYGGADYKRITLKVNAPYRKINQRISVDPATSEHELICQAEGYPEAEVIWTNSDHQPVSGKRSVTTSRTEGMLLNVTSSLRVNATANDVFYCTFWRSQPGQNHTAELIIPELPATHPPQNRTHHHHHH

- EC50, IL-2 induction, murine T cell hybridoma assay, n = 1 [1]: 0.59 nM
- EC50, IL-2 induction, murine T cell hybridoma assay, n = 2 [1]: 0.3 nM
- EC50, IL-2 induction, murine T cell hybridoma assay, n = 3 [1]: 0.18 nM
- binding result [2]: no binding
- IC50 [3]: 0.95 nM
- Kd [4]: 0.172 nM
- Kd [5]: 0.192 nM
- IC50 [6]: 1.26 nM
- IC50 [7]: 1.22 nM
- EC50, ADCC reporter assay, n = 1 [8]: 0.0191 nM
- EC50, ADCC reporter assay, n = 2 [8]: 0.015 nM
- EC50, ADCC reporter assay, n = 3 [8]: 0.0242 nM
- max fold induction, ADCC reporter assay, n = 1 [8]: 10.9 fold
- max fold induction, ADCC reporter assay, n = 2 [8]: 20.1 fold
- max fold induction, ADCC reporter assay, n = 3 [8]: 31.5 fold
- IC50 [9]: 1 nM
- IC50 [10]: 1.22 nM
- IC50 [11]: 1.84 nM
- Kd [12]: 0.778 nM
- Kd [13]: 0.794 nM
- mean EC50, IFNγ induction, monocyte-T cell co-culture [14]: 0.012 nM
- mean fold increase IFNγ, monocyte-T cell co-culture [14]: 3.33 fold
B1: 414B06 (antibody, V domains shown)
VH: EVHLVESGGGLVQPGGSLRLSCAASGFTFSSYWMNWVRQAPGKGLEWVANIKQDGSEKYYVDSVKGRFTVSRDNAKNSLYLQMNSLRAEDTAVYYCARVRQWSDYSDYWGQGTPVTVSS
VL: DIQMTQSPSSVSASVGDRVTITCRASQGISSWLAWYQQKPGKAPKLLIYAASSLQSGVPSRFSGSGSGTDFTLTISSLQPEDFATYYCQQANSFPFTFGPGTKVDIKR
notes: also called 414606

- IC50 [15]: 0.882 nM
- Kd [16]: 0.171 nM
- IC50 [17]: 1.41 nM
B2: 1D05 (control antibody of Examples 14 and 15, constant region not stated) (antibody, V domains shown)
VH: EVQLVESGGGLVQPGRSLRLSCAASGFTFDDYAMHWVRQVPGKGLEWVSGISWIRTGIGYADSVKGRFTIFRDNAKNSLYLQMNSLRAEDTALYYCAKDMKGSGTYGGWFDTWGQGTLVTVSS
VL: not shown
notes: Unfused 1D05 run beside the immunocytokines; also called wild type antibody

- EC50, IL-2 induction, murine T cell hybridoma assay, n = 1 [1]: 0.24 nM
- EC50, IL-2 induction, murine T cell hybridoma assay, n = 2 [1]: 0.14 nM
- EC50, IL-2 induction, murine T cell hybridoma assay, n = 3 [1]: 0.17 nM
- IC50 [3]: 0.89 nM
- IC50 [6]: 1.11 nM
- IC50 [7]: 1.41 nM
- IC50 [18]: 1.82 nM
- IC50 [20]: 7.9 nM
- EC50, ADCC reporter assay, n = 1 [8]: 0.0249 nM
- EC50, ADCC reporter assay, n = 2 [8]: 0.0153 nM
- EC50, ADCC reporter assay, n = 3 [8]: 0.0259 nM
- Kd [21]: 0.43 nM
- Kd [22]: 0.52 nM
- IC50 [10]: 1.41 nM
- mean EC50, IFNγ induction, monocyte-T cell co-culture [14]: 0.081 nM
B3: 84G09 (human IgG1) (antibody, V domains shown)
VH: EVQLVESGGGLVQPGRSLRLSCAASGFTFDDYAMHWVRQTPGKGLEWVSGISWKSNIIGYADSVKGRFTISRDNAKNSLYLQMNSLRAEDTALYYCARDITGSGSYGWFDPWGQGTLVTVSS
VL: DIQMTQSPSSLSASVGDRVTITCRASQSISSYLNWYQQKPGKAPKPLIYVASSLQSGVPSSFSGSGSGTDFTLTISSLQPEDFATYYCQQSYSNPITFGQGTRLEIKR
notes: also called clone 84609; lead antibody
- binding result [19]: no binding (tested: 10 µg/mL top concentration)
